The assay addresses recombinant human IL-6 (human, UniProt P05231, biotinylated in the binding-inhibition assay (sites not given); unlabelled in the antigen-binding assay). Kind of assay: ELISA, IL-6 captured by MH166. On the procedure: An ELISA plate for antigen-binding assay was prepared as follows. A 96-well plate was coated with mouse monoclonal antibody MH166 recognizing a different epitope of human IL-6 from that recognized by SK2 (Matsuda, T. et al., Eur. J. Immunol. 18, 951–956, 1988), and after blocking, recombinant human IL-6 was added thereto. A sample of the chimeric SK2 antibody was sequentially diluted, added to each well, and then an alkaline phosphatase-conjugated goat anti-human IgG antibody (Sigma) was added thereto. After incubation and washing, substrate was added, and absorbance at 405 nm was measured.
A general note: In an ELISA, binding on a coated surface is turned into a signal by an enzyme label.

B1: chimeric SK2 antibody NTS (antibody, V domains shown)
VH: QVTLKESGPGILQPSQTLSLTCSFSGFSLSTSGMTVGWIRQPSGKGLEWLAHIWWNDDKYYNPALKGRLTISKDTSNNQVFLKIASVVTADTATYYCARMEDYDEAMDYWGQGTSVTVSS
VL: DIQMTQSPASLSVSVGETVTITCRASENIYSNLAWYQQKQGKSPQLLVYAATYLADGVPSRFSGSGSGTQYSLKINSLQSEDFGSYYCQHFWGTPPFGSGTKLEIK
Regarding B1, the binding result is “binds”.

These data come from US6121423, “Reshaped human antibody to human interleukin-6” (Chugai Seiyaku Kabushiki Kaisha, dated 2000).
